Source: patent US20030044814

Target: Rab5 (recombinant, purified from E. coli)

Protein	GTP hydrolysis assay (percentage of non-hydrolysed [gamma-32P]GTP remaining bound to filters)
PRC17 (wild type) (protein) MDVVEVAGSWWAQEREDIIMKYEKGHRAGLPEDKGPKPFRSYNNNVDHLGIVHETELPPLTAREAKQIRREISRKSKWVDMLGDWEKYKSSRKLIDRAYKGMPMNIRGPMWSVLLNIEEMKLKNPGRYQIMKEKGKRSSEHIQRIDRDVSGTLRKHIFFRDRYGTKQRELLHILLAYEEYNPEVGYCRDLSHIAALFLLYLPEEDAFWALVQLLASERHSLQGFHSPNGGTVQGLQDQQEHVVATSQPKTMGHQDKKDLCGQCSPLGCLIRILIDGISLGLTLRLWDVYLVEGEQALMPITRIAFKVQQKRLTKTSRCGPWARFCNRFVDTWARDEDTVLKHLRASMKKLTRKQGDLPPPAKPEQGSSASRPVPASRGGKTLCKGDRQAPPGPPARFPRPIWSASPPRAPRSSTPCPGGAVREDTYPVGTQGVPSPALAQGGPQGSWRFLQWNSMPRLPTDLDVEGPWFRHYDFRQSCWVRAISQEDQLAPCWQAEHPAERVRSAFAAPSTDSDQGTPFRARDEQPCAPTSGPCLCGLHLESSQFPPGF	Addition of wild type PRC17 resulted in a 30% reduction of GTP-bound Rab5
mutant form PRC17 (Arg107 and Asp148 substituted by alanines) (protein) MDVVEVAGSWWAQEREDIIMKYEKGHRAGLPEDKGPKPFRSYNNNVDHLGIVHETELPPLTAREAKQIRREISRKSKWVDMLGDWEKYKSSRKLIDRAYKGMPMNIAGPMWSVLLNIEEMKLKNPGRYQIMKEKGKRSSEHIQRIDRAVSGTLRKHIFFRDRYGTKQRELLHILLAYEEYNPEVGYCRDLSHIAALFLLYLPEEDAFWALVQLLASERHSLQGFHSPNGGTVQGLQDQQEHVVATSQPKTMGHQDKKDLCGQCSPLGCLIRILIDGISLGLTLRLWDVYLVEGEQALMPITRIAFKVQQKRLTKTSRCGPWARFCNRFVDTWARDEDTVLKHLRASMKKLTRKQGDLPPPAKPEQGSSASRPVPASRGGKTLCKGDRQAPPGPPARFPRPIWSASPPRAPRSSTPCPGGAVREDTYPVGTQGVPSPALAQGGPQGSWRFLQWNSMPRLPTDLDVEGPWFRHYDFRQSCWVRAISQEDQLAPCWQAEHPAERVRSAFAAPSTDSDQGTPFRARDEQPCAPTSGPCLCGLHLESSQFPPGF	addition of the mutant form PRC17 had no effect on Rab5 GTP-hydrolysis
